Laboratory results as given in US20020169291A1.

What was measured:
[1] = target: mature human IL-18 K89A mutant (human) (UniProt Q14116); test: cell-based or functional assay
[2] = target: mature human IL-18 WT, generated by factor Xa cleavage of proIL-18 (ICE/Xa) (human) (UniProt Q14116); test: cell-based or functional assay
Sequence of mature human IL-18 WT, generated by factor Xa cleavage of proIL-18 (ICE/Xa) (human) (Q14116 37-193 limits assumed): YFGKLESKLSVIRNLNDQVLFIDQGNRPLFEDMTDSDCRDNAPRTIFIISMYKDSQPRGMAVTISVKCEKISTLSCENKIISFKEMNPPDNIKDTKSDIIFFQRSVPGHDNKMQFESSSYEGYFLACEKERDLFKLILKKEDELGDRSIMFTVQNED

Sequence of mature human IL-18 K89A mutant (human) (Q14116 37-193 K89A): as the sequence (Q14116 37-193 limits assumed) above, with K53A counted along it

IL-18BP concentration giving a statistically significant reduction of IFN-γ co-induction in NKO cells [1]: 120 ng/mL
IL-18BP concentration that neutralized IFN-γ induction in PBMCs [1]: 120 ng/mL
50% inhibitory concentration of IL-18BP for co-induction of IFN-γ from NKO cells [2]: 15 ng/mL
amount of IL-18BP needed to neutralize IFN-γ induction in PBMCs [2]: 3.7 ng/mL
Substance: "a" isoform of CHO cell produced recombinant his-6-tagged human IL-18BP (from UniProt O95998 31-194)
